Results on 29 sequences are retold here after the supplement of paper PMC9170038.

This data set has as its system MS2 coat protein. As to the kind of experiment: apparent KD of MS2 coat protein; designed switch direction (-1 OFF switch, 1 ON switch): 1; higher = weaker reporter binding. In short, it runs like this: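 On Illumina chips, designed RNA switches with common flanks were made by stalled E. coli RNA polymerase. Titrations with SNAP-549-labelled MS2 coat protein, doubling from 0.7 or 1.5 nM to 3 µM, were done with no input, with 200 uM small-molecule ligand, or with an oligonucleotide input. Apparent KD is the median per design over clusters, from curve fits of normalised cluster fluorescence.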

The mark [1] stands for this setting: input ligand: microRNA oligo, concentration not stated.
[2] abbreviates: Eterna round: R95, input ligand: FMN 200 uM.
[3] abbreviates: Eterna round: R95, input ligand: microRNA oligo, concentration not stated.
[4] abbreviates: Eterna round: R95, input ligand: none.

Consider “GCCGCGUUUCGCGCCUACAUGAGGAUCACCCAUGUUUGUAGGCAGGAUAUCGCUCGCUUUGCGGGCGAGAAGGGCUGUUGUGGC [salish99_SSNG3_R04_019] (Eterna round: R96, puzzle: Same State NG 3)”, for which the “apparent KD of MS2 coat protein” value is, setting by setting: (input ligand: FMN 200 uM) 45.8 nM; under setting [1], 41.8 nM; (input ligand: none) 54.4 nM.
For the sequence “UAGAAACAUGAGGAUCACCCAUGUGGGUUAAACACAGGAUAUCAUGCCACACGAUAGGUAUGAGAAGGGUGACCGU [Sodion] (puzzle: Same State 1)”, the “apparent KD of MS2 coat protein” value under setting [2] is 234 nM, the “apparent KD of MS2 coat protein” value under setting [3] was found to be 79.5 nM and the “apparent KD of MS2 coat protein” value under setting [4] amounted to 53.3 nM.
Turning to “CCCGCGUUUCGCGCCUACAUGAGGAUCACCCAUGUUUGUAGGCAGGAUAUCGUCCGCUCUGCGGGCGAGAAGGGCUGUUGUGGU [salish99_SSNG3_R04_029] (Eterna round: R96, puzzle: Same State NG 3)”, under setting [1], the “apparent KD of MS2 coat protein” value stood at 72.9 nM.
On to “CAUACGCGGAGAGGAUAUCGCAGGGUAACGGUAAGUGCCCGAUGACAUGAGGAUCACCCAUGUAUCGAGAAGGCUCCUCACCCU [Eternabot solution 22] (Eterna round: R96, puzzle: Same State NG 2)”, for which the “apparent KD of MS2 coat protein” value (input ligand: FMN 200 uM) was found to be 10.6 nM, the “apparent KD of MS2 coat protein” value under setting [1] stood at 7.9 nM and the “apparent KD of MS2 coat protein” value (input ligand: none) turned out to be 15.1 nM.
The matching figures for “AUAGUUGCUGAAGGAUAUGAUGAGGAUCACCCAUCAGAAGGUUGGCUAUUGGGUGGACAUGAGGAUCACCCGUGUUCUUUGGUA (Eterna round: R96, puzzle: Same State NG 1)”: 48.6 nM, 59.1 nM and 82.4 nM.
Take “CGUCCAGCCUGAGCUGGACAAAAGCAUGUACAUGAGGAUCACCCAUGUUCAUGUACAAGCUUUUUGCUCGUCUUACC [salish99_208a_r3_094x] (puzzle: Sensor for hsa-mir-208a)”: the “apparent KD of MS2 coat protein” value is 638 nM under setting [2], 15.9 nM under setting [3] and 1010 nM under setting [4].
In the case of “UUUCUCAUGUAAGGAUAUGCAGCCGUUUCGGCUGCAGAAGGUACUAUAAUACAUGAGGAUCACCCAUGUCUCUCGCAUUGCGAG [JL SSNG1 1.48] (Eterna round: R96, puzzle: Same State NG 1)”, the “apparent KD of MS2 coat protein” value (input ligand: FMN 200 uM) turned out to be 263 nM, the “apparent KD of MS2 coat protein” value under setting [1] came to 28.9 nM and the “apparent KD of MS2 coat protein” value (input ligand: none) was 62 nM.
For the sequence “UGUUGUAUUACAGGAUAUCUAGUAUUUUUAUUUAGAGAAGGGUAUUCACAUGAGGAUCACCCAUGUAUAUACGAGGAAGUUGUG [JMF's solution 9] (Eterna round: R96, puzzle: Same State NG 1)”, under setting [1], the “apparent KD of MS2 coat protein” value is 28 nM.
On to “CUGAGCGAUCGAGGAUAUCACGUCGUUUAGACGUGAGAAGGCGAUCAUAACAUGAGGAUCACCCAUGUAUUACAUGAAGCUCAG [SSNG1/4-A3] (Eterna round: R96, puzzle: Same State NG 1)”, for which the “apparent KD of MS2 coat protein” value (input ligand: FMN 200 uM) was determined as 16.8 nM, the “apparent KD of MS2 coat protein” value under setting [1] was 14.9 nM and the “apparent KD of MS2 coat protein” value (input ligand: none) turned out to be 19.2 nM.
The matching figures for “GCGCAGCUGCGCAAUAUUACAUGAGGAUCACCCAUGUUGUCACAGGAUAUGCUGGACAGCGUCGAGCAGAAGGGUGACCAAACA [Zasovexe] (Eterna round: R96, puzzle: Same State NG 3)”: 191 nM, 97.2 nM and 300 nM.
The like results for “GCUAGAAUUAAUGCCUACAUGAGGAUCACCCAUGUAUGUAGGCAGGAUAUCGUUUGCUUUGCAAACGAGAAGGGCCUUACUAGC [JL SSNG3 1.10] (Eterna round: R96, puzzle: Same State NG 3)” were, in that order, 18.9 nM, 50.8 nM and 77.3 nM.
The matching figures for “AAUUGUUUCUGAGGAUAUCAGUAGUAUGCCAAUUGAGAAGGCAGUACAUGAGGAUCACCCAUGUUGUGGUUUGAUAGAAUGAUA [JR_SSNG1_Sub002] (Eterna round: R96, puzzle: Same State NG 1)”: 170 nM, 143 nM and 181 nM.
In the case of “CAGUGCUGUUGAGAGGAUAUGCGGUGAUGGACAUGAGGAUCACCCAUGUUAGCGACAGCGUUACGGCAGAAGGCUCUACCCACUG [Soteed Omei mod 48] (puzzle: Same State 2)”, the “apparent KD of MS2 coat protein” value under setting [3] was found to be 39.1 nM.
For “GGAGCCGGCCUAGGAUAUUUCAUAACAAAACAUGAGGAUCACCCAUGUAGGCCAGAAGGCCUUGGGAAGAAGGAGGUCGGCUCC [Loop Effect - C26] (Eterna round: R96, puzzle: Same State NG 2)”, the “apparent KD of MS2 coat protein” value under setting [1] stood at 18.9 nM.
Consider “AGCCGAGACUGAGGAUAUUUUAAUCUACAUGAGGAUCACCCAUGUAACAACACGUGGUAUUGAUAGAAGAAGGCGGCUCGGCGC [Omei SS(NG)2 C] (Eterna round: R96, puzzle: Same State NG 2)”, for which the “apparent KD of MS2 coat protein” value (input ligand: FMN 200 uM) amounted to 24.3 nM, the “apparent KD of MS2 coat protein” value under setting [1] was determined as 50.4 nM and the “apparent KD of MS2 coat protein” value (input ligand: none) came to 64 nM.
As for “ACAAGCUUUUUGCUCCUCUUAUGUCCGAAACAUGAGGAUCACCCAUGUAUAGAUUGUGUGUUGUUGUAGAUGCAAGA [JR_SHM208A_Sub061] (puzzle: Sensor for hsa-mir-208a)”, the “apparent KD of MS2 coat protein” value was determined as 69.3 nM under setting [2], 72 nM under setting [3] and 71.8 nM under setting [4].
In the case of “AUAAGGCAAGCUUUUUUCUCGUUGUGUAAACAUGAGGAUCACCCAUGUGCCCACCCUGGAUCUUUGGAUCGCAGAAC [Mais] (puzzle: Sensor for hsa-mir-208a)”, the “apparent KD of MS2 coat protein” value was found to be 40.8 nM under setting [2], 17.5 nM under setting [3] and 40.8 nM under setting [4].
With “AGCUAUCGAAAACGAUAGCAAAAGCAUGUACAUGAGGAUCACCCAUGUCAUGUACAGGCUUUUUGCUCGUCUUAAAA [Zipper 23 - 8] (puzzle: Sensor for hsa-mir-208a)”, the “apparent KD of MS2 coat protein” value by setting is: under setting [2], 26.4 nM; under setting [3], 18.3 nM; under setting [4], 124 nM.
With “ACAUGAGGAGCAGGAUAUCGCAUGAGGAUCACCCGAGAAGGGCUCACACAUGAGGAUCACCCAUGUAUCACCCAUGUAUGUUGA [twils 1] (Eterna round: R96, puzzle: Same State NG 1)”, the “apparent KD of MS2 coat protein” value was 484 nM (input ligand: FMN 200 uM), 105 nM under setting [1] and 498 nM (input ligand: none).
For “UGUAAACAUGAGGAUCACCCAUGUUUUUUCAUGGGAGGAUAUCUGAGUUAAGUAUAUUAAGGAGAAGGCCUUGUGU [× ×•×ª×• ×ž×“×™× ×” × ×—×ª-03] (puzzle: Same State 1)”, the “apparent KD of MS2 coat protein” value is, setting by setting: under setting [2], 90.2 nM; under setting [3], 18.7 nM; under setting [4], 24.7 nM.
As for “GUGGUCAGACAUGAGGAUCACCCAUGUGGAAUAAAUAACGUCAAGGAUAUUCAAUAUAGGAUAUAGAAGAAGGUGAGAUUGGUG (Eterna round: R96, puzzle: Same State NG 3)”, the “apparent KD of MS2 coat protein” value under setting [1] was 142 nM.
Turning to “GAGAGAGGGCGAGGAUAUUCGGUGAUAAUGAUGGAAGAAGGCGCUGACAUGAGGAUCACCCAUGUGGGAAUAAUCCAGAGAGAG [Parity 15 - Jieux - Same State NG 1] (Eterna round: R96, puzzle: Same State NG 1)”, the “apparent KD of MS2 coat protein” value stood at 494 nM (input ligand: FMN 200 uM), 130 nM under setting [1] and 237 nM (input ligand: none).
The matching figures for “AUGUAUCGCCUCGAGGAUAUCCUGUCAUGCACAUGAGGAUCACCCAUGUAAGAGCGAGUUUAAUGGGAGAAGGCGAGUUCUCGGU [JR_SS002_Sub1707] (Eterna round: R96, puzzle: Same State 2)”: 46.9 nM, 78.5 nM and 106 nM.
On to “GAGGGACAGACCAACAUGAGGAUCACCCAUGUCCUCGCAGUUCAGGAUAUCUGGAGGAAGAAGAAAGAGAAGGGAAGGUGAACC [AK SSNG3-V2-35] (Eterna round: R96, puzzle: Same State NG 3)”, for which the “apparent KD of MS2 coat protein” value (input ligand: FMN 200 uM) was 312 nM, the “apparent KD of MS2 coat protein” value under setting [1] is 65.3 nM and the “apparent KD of MS2 coat protein” value (input ligand: none) worked out at 120 nM.
Consider “UGUUAUUUGACAGGAUAUUGAUUGUUAAGUUUUUACAUGAGGAUCACCCAUGUUGUUCAUUCGUACAAGAAGGGUCAAGUUUUU [JR_SSNG2_Sub020] (Eterna round: R96, puzzle: Same State NG 2)”, for which, under setting [1], the “apparent KD of MS2 coat protein” value stood at 52.6 nM.
“CGGCGCUGUCGAGAGGAUAUGCGGUGAUGGACAUGAGGAUCACCCAUGUUAGCGAUAGCAUCACGGUAGAAGGCUCUACGGCCUG [Soteed Omei mod 22] (puzzle: Same State 2)”: under setting [3], the “apparent KD of MS2 coat protein” value worked out at 52.3 nM.
For the sequence “AAUCGUUUGAUAGGAUAUCGCUAUACAUGAGGAUCACCCAUGUUUACCACACUGGUUUUUCGUACCGAGAAGGAUUCUGAUGAU [JL JR sub007 mod 9] (Eterna round: R96, puzzle: Same State NG 2)”, the “apparent KD of MS2 coat protein” value runs as follows: (input ligand: FMN 200 uM) 40.2 nM; under setting [1], 33.1 nM; (input ligand: none) 43.5 nM.
The matching figures for “AGUCCUGCCUGAGCAGGACAAAAGCAUGUACAUGAGGAUCACCCAUGUCAUGUACAAGCUUUUUGCUCGUCUUAAUA [Mat - hsa-mir-208a - Mod of JL - D41] (Eterna round: R96, puzzle: Sensor for hsa-mir-208a)”: 624 nM, 13.7 nM and 735 nM.
With “GCUAGAAUAAAUGCUAACAUGAGGAUCACCCAUGUAUGUUGGCAGGAUAUCGUAUGCAAAGCAUACGAGAAGGGCCAUACUAGC [Mat - Same State NG 3 - JL Mod - D27] (Eterna round: R96, puzzle: Same State NG 3)”, the “apparent KD of MS2 coat protein” value worked out at 17.3 nM (input ligand: FMN 200 uM), 20.4 nM under setting [1] and 29.5 nM (input ligand: none).
